Results on eight variants are retold here after IntAct's records for PubMed 25761904.

First the molecules themselves.
B1: Dual oxidase maturation factor 2 (Homo sapiens), Q1HG44 (parent)
chain: MTLWNGVLPFYPQPRHAAGFSVPLLIVILVFLALAASFLLILPGIRGHSRWFWLVRVLLSLFIGAEIVAVHFSAEWFVGTVNTNTSYKAFSAARVTARVRLLVGLEGINITLTGTPVHQLNETIDYNEQFTWRLKENYAAEYANALEKGLPDPVLYLAEKFTPSSPCGLYHQYHLAGHYASATLWVAFCFWLLSNVLLSTPAPLYGGLALLTTGAFALFGVFALASISSVPLCPLRLGSSALTTQYGAAFWVTLATGVLCLFLGGAVVSLQYVRPSALRTLLDQSAKDCSQERGGSPLILGDPLHKQAALPDLKCITTNL
B2: Dual oxidase 2 (Homo sapiens), Q9NRD8 (parent)
chain: MLRARPEALMLLGALLTGSLGPSGNQDALSLPWEVQRYDGWFNNLRHHERGAVGCRLQRRVPANYADGVYQALEEPQLPNPRRLSNAATRGIAGLPSLHNRTVLGVFFGYHVLSDVVSVETPGCPAEFLNIRIPPGDPVFDPDQRGDVVLPFQRSRWDPETGRSPSNPRDLANQVTGWLDGSAIYGSSHSWSDALRSFSGGQLASGPDPAFPRDSQNPLLMWAAPDPATGQNGPRGLYAFGAERGNREPFLQALGLLWFRYHNLWAQRLARQHPDWEDEELFQHARKRVIATYQNIAVYEWLPSFLQKTLPEYTGYRPFLDPSISPEFVVASEQFFSTMVPPGVYMRNASCHFRKVLNKGFQSSQALRVCNNYWIRENPNLNSTQEVNELLLGMASQISELEDNIVVEDLRDYWPGPGKFSRTDYVASSIQRGRDMGLPSYSQALLAFGLDIPRNWSDLNPNVDPQVLEATAALYNQDLSQLELLLGGLLESHGDPGPLFSAIVLDQFVRLRDGDRYWFENTRNGLFSKKEIEDIRNTTLRDVLVAVINIDPSALQPNVFVWHKGAPCPQPKQLTTDGLPQCAPLTVLDFFEGSSPGFAITIIALCCLPLVSLLLSGVVAYFRGREHKKLQKKLKESVKKEAAKDGVPAMEWPGPKERSSPIIIQLLSDRCLQVLNRHLTVLRVVQLQPLQQVNLILSNNRGCRTLLLKIPKEYDLVLLFSSEEERGAFVQQLWDFCVRWALGLHVAEMSEKELFRKAVTKQQRERILEIFFRHLFAQVLDINQADAGTLPLDSSQKVREALTCELSRAEFAESLGLKPQDMFVESMFSLADKDGNGYLSFREFLDILVVFMKGSPEDKSRLMFTMYDLDENGFLSKDEFFTMMRSFIEISNNCLSKAQLAEVVESMFRESGFQDKEELTWEDFHFMLRDHDSELRFTQLCVKGGGGGGNGIRDIFKQNISCRVSFITRTPGERSHPQGLGPPAPEAPELGGPGLKKRFGKKAAVPTPRLYTEALQEKMQRGFLAQKLQQYKRFVENYRRHIVCVAIFSAICVGVFADRAYYYGFASPPSDIAQTTLVGIILSRGTAASVSFMFSYILLTMCRNLITFLRETFLNRYVPFDAAVDFHRWIAMAAVVLAILHSAGHAVNVYIFSVSPLSLLACIFPNVFVNDGSKLPQKFYWWFFQTVPGMTGVLLLLVLAIMYVFASHHFRRRSFRGFWLTHHLYILLYALLIIHGSYALIQLPTFHIYFLVPAIIYGGDKLVSLSRKKVEISVVKAELLPSGVTYLQFQRPQGFEYKSGQWVRIACLALGTTEYHPFTLTSAPHEDTLSLHIRAVGPWTTRLREIYSSPKGNGCAGYPKLYLDGPFGEGHQEWHKFEVSVLVGGGIGVTPFASILKDLVFKSSLGSQMLCKKIYFIWVTRTQRQFEWLADIIQEVEENDHQDLVSVHIYVTQLAEKFDLRTTMLYICERHFQKVLNRSLFTGLRSITHFGRPPFEPFFNSLQEVHPQVRKIGVFSCGPPGMTKNVEKACQLVNRQDRAHFMHHYENF
partner: B1 chain

One test covers variants of B1. The note with it: with duox2_human DUOX2, Q9NRD8.
In the case of MTLWNGVLPFYPQPRHAAGFSVPLLIVILVFLALAASFLLILPGIRGHSRWFWLVRVLLSLFIGAEIVAVHFSAEWFVGTVNTNTSYKAFSAARVTARVRLLVGLEGINITLTGTPVHQLNETIDYNEQFTWRLKENYAAEYANALEKGLPDPVLYLAEKFTPSSPGGLYHQYHLAGHYASATLWVAFCFWLLSNVLLSTPAPLYGGLALLTTGAFALFGVFALASISSVPLCPLRLGSSALTTQYGAAFWVTLATGVLCLFLGGAVVSLQYVRPSALRTLLDQSAKDCSQERGGSPLILGDPLHKQAALPDLKCITTNL [C167G], the “effect of a mutation on the interaction” value is given as “disrupting interaction strength”.
On the same count and under the same terms, next, MTLWNGVLPFYPQPRHAAGFSVPLLIVILVFLALAASFLLILPGIRGHSRWFWLVRVLLSLFIGAEIVAVHFSAEWFVGTVNTNTSYKAFSAARVTARVRLLVGLEGINITLTGTPVHQLNETIDYNEQFTWRLKENYAAEYANALEKGLPDPVLYLAEKFTPSSPCGLYHQYHLAGHYASATLWVAFCFWLLSNVLLSTPAPLYGGLALLTTGAFALFGVFALASISSVPLGPLRLGSSALTTQYGAAFWVTLATGVLCLFLGGAVVSLQYVRPSALRTLLDQSAKDCSQERGGSPLILGDPLHKQAALPDLKCITTNL [C233G]: “disrupting interaction strength”.

Variants of B2 are the subject of a further test. The settings on record: with doxa2_human DUOXA2, Q1HG44.
As for C124G, the “effect of a mutation on the interaction” value is “disrupting interaction strength”.

Variants of B2 are the subject of another test. The note with it: with doxa2_human DUOXA2, Q1HG44. The source holds these as a separate data set.
For C351G, the “effect of a mutation on the interaction” value is reported as “with no effect”.
The same measure, in the same setting: then C582G, with “disrupting interaction strength”.
On the same count and under the same terms, then C370G, with “decreasing interaction strength”; and C568G, with “disrupting interaction strength”.

The next test covers variants of B2. The note with it: with doxa2_human DUOXA2, Q1HG44. This is another data set of the same source.
With C1162G, the “effect of a mutation on the interaction” value is recorded as “disrupting interaction strength”.
